# Experimental data from patent publication US20220249683A1 (MAGENTA THERAPEUTICS, published 2022).
# T1: human CD5 on cells (human, UniProt P06127 25-495)
# T1 construct: Endogenous CD5 on MOLT-4 human T lymphoblast cells or primary human T cells; The cell type is named under assay; also called CD5 on MOLT-4 cells; CD5 on primary human T-cells
# T1 sequence (looked up): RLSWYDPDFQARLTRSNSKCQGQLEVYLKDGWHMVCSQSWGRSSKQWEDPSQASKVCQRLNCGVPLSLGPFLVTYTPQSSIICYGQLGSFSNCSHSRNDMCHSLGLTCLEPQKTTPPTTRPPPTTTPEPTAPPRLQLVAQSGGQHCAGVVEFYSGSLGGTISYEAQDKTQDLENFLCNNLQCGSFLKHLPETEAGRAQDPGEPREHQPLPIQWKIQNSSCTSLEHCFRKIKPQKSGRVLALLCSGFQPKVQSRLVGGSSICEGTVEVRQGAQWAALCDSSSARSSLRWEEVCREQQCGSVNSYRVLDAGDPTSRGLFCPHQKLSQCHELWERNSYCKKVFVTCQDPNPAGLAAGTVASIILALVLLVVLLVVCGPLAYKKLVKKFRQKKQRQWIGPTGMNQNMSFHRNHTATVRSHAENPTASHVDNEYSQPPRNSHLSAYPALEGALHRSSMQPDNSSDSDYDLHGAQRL
# T2: human CD2 on cells (human, UniProt P06729 25-351)
# T2 construct: Endogenous CD2 on MOLT-4 human T lymphoblast cells, primary human T cells or primary human NK cells; The cell type is named under assay; also called CD2 on MOLT-4 cells; CD2 on primary human T-cells
# T2 sequence: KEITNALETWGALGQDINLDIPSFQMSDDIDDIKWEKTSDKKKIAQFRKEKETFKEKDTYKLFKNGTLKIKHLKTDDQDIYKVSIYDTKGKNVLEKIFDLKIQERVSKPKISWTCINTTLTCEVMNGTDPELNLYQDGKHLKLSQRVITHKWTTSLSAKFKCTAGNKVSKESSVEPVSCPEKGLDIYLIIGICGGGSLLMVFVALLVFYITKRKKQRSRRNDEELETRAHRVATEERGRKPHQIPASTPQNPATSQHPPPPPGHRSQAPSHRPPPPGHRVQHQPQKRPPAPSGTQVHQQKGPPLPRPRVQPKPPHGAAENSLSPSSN
# T3: purified human CD2 ectodomain (human, UniProt P06729 25-209)
# T3 construct: Bought reagent; also called Sigma Aldrich Catalog #5086
# T3 sequence: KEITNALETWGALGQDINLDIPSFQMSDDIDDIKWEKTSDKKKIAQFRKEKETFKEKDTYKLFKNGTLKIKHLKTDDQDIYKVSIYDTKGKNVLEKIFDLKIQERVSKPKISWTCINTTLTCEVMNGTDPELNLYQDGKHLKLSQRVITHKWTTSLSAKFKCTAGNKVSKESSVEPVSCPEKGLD
# T4: purified human CD5 ectodomain (human, UniProt P06127 25-372)
# T4 sequence (looked up): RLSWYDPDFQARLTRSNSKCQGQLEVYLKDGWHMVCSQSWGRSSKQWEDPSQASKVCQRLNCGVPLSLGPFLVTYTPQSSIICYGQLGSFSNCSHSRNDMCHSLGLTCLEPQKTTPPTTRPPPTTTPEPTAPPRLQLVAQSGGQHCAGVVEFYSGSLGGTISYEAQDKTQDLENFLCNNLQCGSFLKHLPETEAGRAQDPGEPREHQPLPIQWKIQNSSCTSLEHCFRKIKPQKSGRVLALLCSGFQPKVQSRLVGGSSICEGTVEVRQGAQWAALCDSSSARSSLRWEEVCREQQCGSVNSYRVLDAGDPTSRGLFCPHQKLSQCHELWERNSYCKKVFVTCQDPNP
# Assays:
# [1] = target: T1, human CD5 on cells; assay: flow cytometry on MOLT-4 cells, antibody titration, anti-mouse AF488 secondary, 4 C
# [2] = target: T1, human CD5 on cells; assay: flow cytometry on MOLT-4 cells, antibody titration 2 h at 4 C, anti-mouse AF488 secondary, geometric MFI
# [3] = target: T2, human CD2 on cells; assay: flow cytometry on MOLT-4 cells, antibody titration, anti-mouse AF488 secondary, 4 C
# [4] = target: T3, purified human CD2 ectodomain; assay: BLI (Octet Red96), IgG on anti-murine Fc biosensor, 50 nM human CD2 ectodomain, 1:1 model, apparent monovalent affinity
# [5] = target: T3, purified human CD2 ectodomain; assay: BLI (Octet Red96), IgG on anti-murine Fc biosensor, 50 nM human CD2 ectodomain, 1:1 model
# [6] = target: T2, human CD2 on cells; assay: flow cytometry on primary human T-cells, antibody titration 2 h at 37 C, AF488 secondary, MFI
# Procedure: Primary human T-cells were plated at 8×10⁴ cells/well and stained with a titration of the murine anti-CD23 antibody RPA-2.10 for 2 hours at 37° C. Secondary anti-mouse or anti-human AF488 stain, relative to primary antibody, at a constant amount, was added for 30 minutes at 4° C. After washing, plates were run on a flow cytometer and binding of the indicated antibody (and the negative control, i.e., mIgG1 or hIgG1) was determined based on geometric mean fluorescence intensity in the AF488 channel.
# [7] = target: T2, human CD2 on cells; assay: flow cytometry on primary human T-cells, antibody titration 2 h at 37 C, AF488 secondary
# [8] = target: T4, purified human CD5 ectodomain; assay: BLI (Octet Red96), IgG on anti-human Fc biosensor, 50 nM human CD5 ectodomain
# Procedure: To determine the binding characteristics of anti-CD5 antibody 5D7 hIgG1, antibody binding studies were performed at 25 degrees celsius in 1×PBS supplemented with 0.1% w/v bovine serum albumin with a Pall ForteBio Octet Red96 using biolayer interferometry (BLI).
# [9] = target: T1, human CD5 on cells; assay: flow cytometry on primary human T-cells, antibody titration 2 h at 37 C, AF488 secondary, MFI
# Procedure: Secondary anti-mouse AF488 stain, at a constant amount, was added for 30 minutes at 4° C.
# [10] = target: T1, human CD5 on cells; assay: flow cytometry on primary human T-cells, antibody titration 2 h at 37 C, AF488 secondary
# [11] = target: T3, purified human CD2 ectodomain; assay: BLI (Octet Red96), IgG on anti-human Fc biosensor, 50 nM human CD2 ectodomain, 1:1 model, apparent monovalent affinity
# [12] = target: T3, purified human CD2 ectodomain; assay: BLI (Octet Red96), IgG on anti-human Fc biosensor, 50 nM human CD2 ectodomain, 1:1 model
molecule,measurement,setting,value
murine anti-CD5 antibody UCHT2 (BioLegend),EC50,[1],354 pM
same,EC50 (read off the curve),[2],300 pM
murine anti-CD2 antibody TS1/8,EC50,[3],125 pM
murine anti-CD5 antibody CRIS-1 (Novus Biologicals),EC50,[1],43 pM
same,EC50 (read off the curve),[2],40 pM
"anti-CD2 antibody RPA-2.10 mIgG1 (antibody, V domains shown, Murine IgG1; also called mRPA-2.10; murine anti-CD2 antibody RPA-2.10) VH: EVKLVESGGGLVKPGGSLKLSCAASGFTFSSYDMSWVRQTPEKRLEWVASISGGGFLYYLDSVKGRFTISRDNARNILYLHMTSLRSEDTAMYYCARSSYGEIMDYWGQGTSVTVSS VL: DILLTQSPAILSVSPGERVSFSCRASQRIGTSIHWYQQRTTGSPRLLIKYASESISGIPSRFSGSGSGTDFTLSINSVESEDVADYYCQQSHGWPFTFGGGTKLEIER",Kd,[4],2000 pM
same,EC50,[3],160 pM
same,koff,[5],0.000172 s⁻¹
same,kon,[5],86000 M⁻¹ s⁻¹
same,EC50 (read off the curve),[6],~30 pM
same,EC50,[7],1.84 pM
"anti-CD5 antibody 5D7 hIgG1 (humanized version of murine antibody 5D7) (antibody, V domains shown, Tested as human IgG1 (hIgG1); also called anti-CD5 5D7 antibody; humanized 5D7) VH: QVTLKESGPVLVKPTETLTLTCTFSGFSLSTSGMGVGWIRQAPGKGLEWVAHIWWDDDVYYNPSLKSRLTITKDASKDQVSLKLSSVTAADTAVYYCVRRRATGTGFDYWGQGTLVTVSS VL: NIVMTQSPSSLSASVGDRVTITCQASQDVGTAVAWYQQKPDQSPKLLIYWTSTRHTGVPDRFTGSGSGTDFTLTISSLQPEDIATYFCHQYNSYNTFGSGTKLEIK",Kd,[8],141 pM
same,koff,[8],3.36e-05 s⁻¹
same,kon,[8],239000 M⁻¹ s⁻¹
same,EC50 (read off the curve),[9],~30 pM
same,EC50,[10],3 pM
"anti-CD2 antibody Ab1 hIgG1 (antibody, V domains shown, Tested as human IgG1 (hIgG1)) VH: QVQLVQSGAEVKKPGASVKVSCKASGYTFTEYYMYWVRQAPGQGLELMGRIDPEDGSIDYVEKFKKKVTLTADTSSSTAYMELSSLTSDDTAVYYCARGKFNYRFAYWGQGTLVTVSS VL: DVVMTQSPPSLLVTLGQPASISCRSSQSLLHSSGNTYLNWLLQRPGQSPQPLIYLVSKLESGVPDRFSGSGSGTDFTLKISGVEAEDVGVYYCMQFTHYPYTFGQGTKLEIK",Kd,[11],2120 pM
same,koff,[12],0.000289 s⁻¹
same,kon,[12],136000 M⁻¹ s⁻¹
